Measured values as given in patent US20030203451A1 (Genentech, published 2003).

Key:
[1] = biological target: recombinant IL-17E (baculovirus, Examples 33/34) (human) (UniProt Q9H293); assay: SPR (BIAcore 1000), IL-17E immobilized on CM5 chip, IL-17RH1 ECD in solution, 1:1 model
[2] = biological target: T1, IL-17R extracellular domain (residues 1-288), baculovirus, Examples 33/34 (human, UniProt Q96F46 33-320); assay: SPR (BIAcore), IL-17F immobilized, receptor ECD in solution
T1 construct: range 1-288; also called IL-17R ECD

[3] = biological target: T2, IL-17RH1 (PRO5801) extracellular domain (residues 1-275), baculovirus, Examples 33/34 (human) (UniProt Q9NRM6); assay: SPR (BIAcore 1000), IL-17RH1 ECD immobilized on CM5 chip, IL-17E in solution, 1:1 model
T2 sequence: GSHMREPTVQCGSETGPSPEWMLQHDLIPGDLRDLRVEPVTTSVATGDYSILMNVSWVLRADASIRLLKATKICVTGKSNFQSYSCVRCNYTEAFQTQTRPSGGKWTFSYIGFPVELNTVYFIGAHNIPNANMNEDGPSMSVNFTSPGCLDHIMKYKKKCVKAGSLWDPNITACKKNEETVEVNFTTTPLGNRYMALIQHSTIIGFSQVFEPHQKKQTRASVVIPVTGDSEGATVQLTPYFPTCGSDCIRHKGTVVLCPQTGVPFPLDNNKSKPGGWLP

[4] = biological target: T1, IL-17R extracellular domain (residues …); assay: SPR (BIAcore)
[5] = biological target: T3, IL-17RH1 (PRO5801) expressed on transfected 293 cells (human, UniProt Q9NRM6 18-502); assay: FACS on 293 cells co-transfected with GFP and IL-17RH1, ligand-Fc detected with PE anti-human Fc antibody, GFP-positive cells
T3 construct: also called IL-17RH1 expressing cells
T3 sequence: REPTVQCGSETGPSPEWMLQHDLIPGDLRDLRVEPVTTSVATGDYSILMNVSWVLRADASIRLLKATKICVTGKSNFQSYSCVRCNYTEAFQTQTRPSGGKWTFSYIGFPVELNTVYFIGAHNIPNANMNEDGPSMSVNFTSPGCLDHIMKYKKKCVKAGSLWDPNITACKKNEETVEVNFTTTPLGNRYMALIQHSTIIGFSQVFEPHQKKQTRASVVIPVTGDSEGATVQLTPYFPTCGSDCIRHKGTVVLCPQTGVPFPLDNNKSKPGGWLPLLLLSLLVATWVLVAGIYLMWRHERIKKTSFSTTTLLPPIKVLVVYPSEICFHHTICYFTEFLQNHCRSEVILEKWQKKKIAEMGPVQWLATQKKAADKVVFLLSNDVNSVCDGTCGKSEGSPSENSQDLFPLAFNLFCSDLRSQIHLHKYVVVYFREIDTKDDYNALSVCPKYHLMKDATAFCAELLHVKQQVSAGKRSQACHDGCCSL

[6] = biological target: T3, IL-17RH1 (PRO5801) expressed on …; assay: flow cytometry competition against IL-17E immunoadhesin on IL-17RH1-transfected 293 cells

IL-17RH1 (PRO5801) extracellular domain (residues 1-275), baculovirus, Examples 33/34 (from UniProt Q9NRM6 18-292) (receptor)
Kd [1]: 1.1 nM | koff [1]: 0.0007 s⁻¹ | kon [1]: 670000 M⁻¹ s⁻¹

B1: recombinant IL-17F (baculovirus, Examples 33/34) (ligand)
chain: GSHMRKIPKVGHTFFQKPESCPPVPGGSMKLDIGIINENQRVSMSRNIESRSTSPWNYTVTWDPNRYPSEVVQAQCRNLGCINAQGKEDISMNSVPIQQETLVVRRKHQGCSVSFQLEKVLVTVGCTCVTPVIHHVQ
modifications: N-glycosylation at Asn 53 (mature numbering); about 3 kDa carbohydrate per dimer
notes: The same protein was crystallized; also called IL-17F (PRO20110); immobilized IL-17F
binding result [2]: no binding (tested: up to 1 µM)

B2: recombinant IL-17E (baculovirus, Examples 33/34) (ligand)
chain: GSHMYSHWPSCCPSKGQDTSEELLRWSTVPVPPLEPARPNRHPESCRASEDGPLNSRAISPWRYELDRDLNRLPQDLYHARCLCPHCVSLQTGSHMDPRGNSELLYHNQTVFYRRPCHGEKGTHKGYCLERRLYRVSLACVCVRPRVMG
notes: also called IL-17E (PRO10272); soluble IL-17E
Kd [3]: 1.4 nM | koff [3]: 0.00062 s⁻¹ | kon [3]: 430000 M⁻¹ s⁻¹ | binding result [4]: no binding

B3: IL-17E-Fc fusion protein (IL-17E immunoadhesin) (Fc fusion)
chain: YSHWPSCCPSKGQDTSEELLRWSTVPVPPLEPARPNRHPESCRASEDGPLNSRAISPWRYELDRDLNRLPQDLYHARCLCPHCVSLQTGSHMDPRGNSELLYHNQTVFYRRPCHGEKGTHKGYCLERRLYRVSLACVCVRPRVMG
notes: not shown: Fc region of human IgG1, fused in frame at the C-terminus
binding result [5]: binds

B4: His epitope tagged IL-17E (E. coli, refolded) (ligand)
chain: YSHWPSCCPSKGQDTSEELLRWSTVPVPPLEPARPNRHPESCRASEDGPLNSRAISPWRYELDRDLNRLPQDLYHARCLCPHCVSLQTGSHMDPRGNSELLYHNQTVFYRRPCHGEKGTHKGYCLERRLYRVSLACVCVRPRVMG
notes: also called IL-17E 8xHis-tag fusion; not shown: 8xHis-tag fusion
binding result [6]: binds
